In patent publication US20160264647A1 (US Dept. of Health and Human Services, published 2016):

T1: MERS-CoV spike glycoprotein (S) (MERS-CoV, UniProt K9N5Q8 18-1353)
T1 sequence: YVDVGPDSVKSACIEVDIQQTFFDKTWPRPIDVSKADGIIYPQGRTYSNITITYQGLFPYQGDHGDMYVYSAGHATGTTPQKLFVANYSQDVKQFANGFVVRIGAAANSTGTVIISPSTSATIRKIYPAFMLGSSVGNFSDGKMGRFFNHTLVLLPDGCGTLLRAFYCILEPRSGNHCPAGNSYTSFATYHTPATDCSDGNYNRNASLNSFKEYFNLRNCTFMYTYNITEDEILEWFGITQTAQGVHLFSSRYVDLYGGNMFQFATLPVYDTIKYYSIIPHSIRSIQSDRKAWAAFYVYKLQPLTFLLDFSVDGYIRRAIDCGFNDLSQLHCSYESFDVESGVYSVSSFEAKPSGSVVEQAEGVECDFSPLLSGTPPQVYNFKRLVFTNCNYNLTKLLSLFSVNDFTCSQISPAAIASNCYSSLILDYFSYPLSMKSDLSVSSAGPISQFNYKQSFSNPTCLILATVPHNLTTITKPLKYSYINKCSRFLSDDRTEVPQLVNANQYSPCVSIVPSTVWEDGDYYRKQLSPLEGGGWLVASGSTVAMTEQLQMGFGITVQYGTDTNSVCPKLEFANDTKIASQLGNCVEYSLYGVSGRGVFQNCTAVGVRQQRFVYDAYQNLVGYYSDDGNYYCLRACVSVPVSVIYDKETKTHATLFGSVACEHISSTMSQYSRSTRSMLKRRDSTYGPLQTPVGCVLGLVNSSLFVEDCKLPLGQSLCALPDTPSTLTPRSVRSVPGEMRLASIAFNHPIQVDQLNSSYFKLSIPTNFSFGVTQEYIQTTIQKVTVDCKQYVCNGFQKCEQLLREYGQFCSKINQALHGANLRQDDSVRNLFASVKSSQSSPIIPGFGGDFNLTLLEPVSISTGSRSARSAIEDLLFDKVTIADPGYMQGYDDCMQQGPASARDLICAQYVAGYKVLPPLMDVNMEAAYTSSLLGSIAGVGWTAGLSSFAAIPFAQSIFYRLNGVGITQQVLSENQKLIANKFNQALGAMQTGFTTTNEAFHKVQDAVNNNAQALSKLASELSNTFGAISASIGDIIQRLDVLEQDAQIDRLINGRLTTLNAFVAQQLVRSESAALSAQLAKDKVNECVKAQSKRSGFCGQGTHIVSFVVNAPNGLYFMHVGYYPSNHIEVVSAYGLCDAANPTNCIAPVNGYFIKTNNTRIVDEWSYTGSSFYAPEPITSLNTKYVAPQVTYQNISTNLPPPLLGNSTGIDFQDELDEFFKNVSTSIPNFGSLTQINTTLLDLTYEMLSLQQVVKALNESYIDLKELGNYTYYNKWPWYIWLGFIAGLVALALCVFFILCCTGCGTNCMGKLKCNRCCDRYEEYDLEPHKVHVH


Biological target: T1, MERS-CoV spike glycoprotein (S)
Experiment: cell-based or functional assay

| Binder | MERS-CoV pseudovirus neutralization (inhibition of viral entry) at 0.1 µg/ml [%] |
| --- | --- |
| IgG1 m336 (antibody, V domains shown) VH: QVQLVQSGAEVKKPGSSVKVSCKASGGTFSSYAISWVRQAPGQGLEWMGGIIPIFGTASYAQKFQGRVTITADKSTSTAYMELSSLRSEDTAVYYCARVGYCSSTSCNRGAFDIWGQGTMVTVSS VL: DIQLTQSPSSLSASVGDRVTITCRASQGIRNDLGWYQQKPGKAPKLLIYAASSLQSGVPSRFSGSGSGTDFTLTISSLQPEDFATYYCQQLNSYPLTFGGGTKVEIKR | > 95 |
| IgG1 m337 (antibody, V domains shown) VH: QVQLQQSGAEVKKPGSSVKVSCKASGGTFSSYTISWVRQAPGQGLEWMGRIIPIFGTANYAQKFQGRVTITADKSTSTAYMELSSLRSEDTAVYYCARDLGPGGDSSGYYYGPGAFDIWGQGTMVTVSS VL: not shown | > 95 |
| IgG1 m338 (antibody, V domains shown) VH: QVQLQQSGAEVKKRGSSVKVSCKASGGTFSSYTISWVRQAPGQGLEWMGRIIPILGIANYAQKFQGRVTITADKSTSTAYMELSSLRSEDTAVYYCARDLYDSSGYYRNTDAFDIWGQGTMVTVSS VL: EIVMTQSPVTLSLSPGERATLSCRASQSVSSYLAWYQQKPGQAPRLLIYDASNRATGIPARFSGSGSGTDFTLTISSLEPEDFAVYYCQQYGSSPWTFGQGTKVEIKR | > 95 |
